Starred links: 1 amine or outer side, 2 acyl side, 3 side chain; linkers in the order of their positions; H or OH if unused. Positions of bridges follow the written chain, without caps; N, C: chain ends. Non-standard residues stand in square brackets, D forms with d. Groups on a side chain read outwards from the residue. *: point of attachment. Trp(1-Me) = Cn1cc(C[C@H](N)C(=O)O)c2ccccc21; C18 diacid = O=C(O)CCCCCCCCCCCCCCCCC(=O)*; C16 diacid = O=C(O)CCCCCCCCCCCCCCC(=O)*; γGlu = O=C(O)[C@H](CCC(=O)[*:2])N[*:1]; hCys = N[C@@H](CCS)C(=O)O; AEEA = NCCOCCOCC(=O)O; Sar = CNCC(=O)O

The experiment concerns the target Human C3 (human, UniProt P01024 23-1663). Briefly: cell-based or functional assay.

Human C3, sequence (P01024 23-1663 limits assumed): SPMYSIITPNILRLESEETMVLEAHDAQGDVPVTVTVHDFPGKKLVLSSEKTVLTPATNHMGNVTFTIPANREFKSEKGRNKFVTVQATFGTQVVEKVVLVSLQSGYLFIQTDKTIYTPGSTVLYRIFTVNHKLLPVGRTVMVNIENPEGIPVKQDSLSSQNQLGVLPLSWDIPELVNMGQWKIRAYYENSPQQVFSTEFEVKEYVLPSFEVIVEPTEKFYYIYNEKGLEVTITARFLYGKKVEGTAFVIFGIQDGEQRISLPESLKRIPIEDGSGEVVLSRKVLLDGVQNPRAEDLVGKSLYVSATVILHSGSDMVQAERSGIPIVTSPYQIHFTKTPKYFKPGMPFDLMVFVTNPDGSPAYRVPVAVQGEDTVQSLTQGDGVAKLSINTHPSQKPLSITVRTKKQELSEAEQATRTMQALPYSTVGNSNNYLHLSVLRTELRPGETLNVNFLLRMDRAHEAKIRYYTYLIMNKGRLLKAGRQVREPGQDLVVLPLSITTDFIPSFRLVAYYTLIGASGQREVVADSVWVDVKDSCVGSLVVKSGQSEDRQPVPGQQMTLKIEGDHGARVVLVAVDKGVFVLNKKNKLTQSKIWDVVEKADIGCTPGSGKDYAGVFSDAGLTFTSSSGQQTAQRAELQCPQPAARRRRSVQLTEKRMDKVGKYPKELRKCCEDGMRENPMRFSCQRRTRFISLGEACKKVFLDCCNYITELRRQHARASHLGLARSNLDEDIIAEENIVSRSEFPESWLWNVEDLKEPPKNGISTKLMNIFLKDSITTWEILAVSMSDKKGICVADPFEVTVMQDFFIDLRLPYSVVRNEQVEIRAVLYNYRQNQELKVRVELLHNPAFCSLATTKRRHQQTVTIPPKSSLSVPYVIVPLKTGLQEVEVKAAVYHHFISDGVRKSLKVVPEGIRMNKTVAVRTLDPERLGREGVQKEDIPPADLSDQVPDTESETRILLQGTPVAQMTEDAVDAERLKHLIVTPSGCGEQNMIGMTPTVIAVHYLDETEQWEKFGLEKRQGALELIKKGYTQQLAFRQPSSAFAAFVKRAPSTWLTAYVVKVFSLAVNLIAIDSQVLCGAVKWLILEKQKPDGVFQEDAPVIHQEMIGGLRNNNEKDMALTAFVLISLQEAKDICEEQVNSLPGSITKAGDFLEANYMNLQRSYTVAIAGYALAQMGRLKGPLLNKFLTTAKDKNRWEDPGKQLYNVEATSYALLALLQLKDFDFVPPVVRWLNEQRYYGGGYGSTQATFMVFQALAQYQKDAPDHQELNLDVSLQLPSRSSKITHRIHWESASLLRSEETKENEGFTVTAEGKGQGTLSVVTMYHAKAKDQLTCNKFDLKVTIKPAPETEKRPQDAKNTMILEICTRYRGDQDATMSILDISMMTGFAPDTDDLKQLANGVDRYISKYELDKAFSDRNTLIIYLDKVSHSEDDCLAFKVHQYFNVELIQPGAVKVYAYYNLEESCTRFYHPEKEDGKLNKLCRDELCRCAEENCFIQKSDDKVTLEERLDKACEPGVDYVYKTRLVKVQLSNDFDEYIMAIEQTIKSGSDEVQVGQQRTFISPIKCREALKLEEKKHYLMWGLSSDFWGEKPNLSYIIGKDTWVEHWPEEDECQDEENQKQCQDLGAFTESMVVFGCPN

B1: Compound 44 (peptide)
peptide: Ac-EGSAICIWQDWGEHRC[Sar]EGE-NH2
modifications: disulfide 6-16
SMILES: CC[C@H](C)[C@H](NC(=O)[C@H](C)NC(=O)[C@H](CO)NC(=O)CNC(=O)[C@H](CCC(=O)O)NC(C)=O)C(=O)N[C@H]1CSSC[C@@H](C(=O)N(C)CC(=O)N[C@@H](CCC(=O)O)C(=O)NCC(=O)N[C@@H](CCC(=O)O)C(N)=O)NC(=O)[C@H](CCCNC(=N)N)NC(=O)[C@H](Cc2c[nH]cn2)NC(=O)[C@H](CCC(=O)O)NC(=O)CNC(=O)[C@H](Cc2c[nH]c3ccccc23)NC(=O)[C@H](CC(=O)O)NC(=O)[C@H](CCC(N)=O)NC(=O)[C@H](Cc2c[nH]c3ccccc23)NC(=O)[C@H]([C@@H](C)CC)NC1=O
Regarding B1, the IC50[nM], inhibition of hemolysis is below 250 nM.

B2: Compound 45 (peptide)
peptide: Ac-EGSAFCIWQDWGEHRC[Sar]E-NH2
modifications: disulfide 6-16
SMILES: CC[C@H](C)[C@@H]1NC(=O)[C@@H](NC(=O)[C@H](Cc2ccccc2)NC(=O)[C@H](C)NC(=O)[C@H](CO)NC(=O)CNC(=O)[C@H](CCC(=O)O)NC(C)=O)CSSC[C@@H](C(=O)N(C)CC(=O)N[C@@H](CCC(=O)O)C(N)=O)NC(=O)[C@H](CCCNC(=N)N)NC(=O)[C@H](Cc2c[nH]cn2)NC(=O)[C@H](CCC(=O)O)NC(=O)CNC(=O)[C@H](Cc2c[nH]c3ccccc23)NC(=O)[C@H](CC(=O)O)NC(=O)[C@H](CCC(N)=O)NC(=O)[C@H](Cc2c[nH]c3ccccc23)NC1=O
B2 returned an IC50[nM], inhibition of hemolysis below 100 nM.

B3: Ac-IC(1)X…(1)T-NH2 with Leucine at position 3 (peptide)
peptide: Ac-ICLWQDWGEHRCT-NH2
modifications: disulfide 2-12
SMILES: CC[C@H](C)[C@H](NC(C)=O)C(=O)N[C@H]1CSSC[C@@H](C(=O)N[C@H](C(N)=O)[C@@H](C)O)NC(=O)[C@H](CCCNC(=N)N)NC(=O)[C@H](Cc2c[nH]cn2)NC(=O)[C@H](CCC(=O)O)NC(=O)CNC(=O)[C@H](Cc2c[nH]c3ccccc23)NC(=O)[C@H](CC(=O)O)NC(=O)[C@H](CCC(N)=O)NC(=O)[C@H](Cc2c[nH]c3ccccc23)NC(=O)[C@H](CC(C)C)NC1=O
In the case of B3, the IC50, CP hemolysis was 500 nM.

B4: Compound 41 (peptide)
peptide: Ac-SAICIWQDWGEHRC[Sar]E-NH2
modifications: disulfide 4-14
SMILES: CC[C@H](C)[C@H](NC(=O)[C@H](C)NC(=O)[C@H](CO)NC(C)=O)C(=O)N[C@H]1CSSC[C@@H](C(=O)N(C)CC(=O)N[C@@H](CCC(=O)O)C(N)=O)NC(=O)[C@H](CCCNC(=N)N)NC(=O)[C@H](Cc2c[nH]cn2)NC(=O)[C@H](CCC(=O)O)NC(=O)CNC(=O)[C@H](Cc2c[nH]c3ccccc23)NC(=O)[C@H](CC(=O)O)NC(=O)[C@H](CCC(N)=O)NC(=O)[C@H](Cc2c[nH]c3ccccc23)NC(=O)[C@H]([C@@H](C)CC)NC1=O
Regarding B4, the IC50[nM], inhibition of hemolysis is below 250 nM.

In the case of Ac-SEFAI[Trp(1-Me)]QDW[Sar]EHR[hCys][Sar]E[AEEA][AEEA]K([γGlu-Gly-γGlu-C18 diacid])-OH (thioether 4-14) [Compound 162], the IC50[nM], inhibition of hemolysis is below 100 nM.

B5: Compound 156 (peptide)
peptide: Ac-SEFAI[Trp(1-Me)]QDWGEHR[hCys]TEGE[AEEA][AEEA]K([γGlu-Gly-γGlu-C18 diacid])-NH2
modifications: thioether 4-14
SMILES: CC[C@H](C)[C@@H]1NC(=O)[C@@H](NC(=O)[C@H](Cc2ccccc2)NC(=O)[C@H](CCC(=O)O)NC(=O)[C@H](CO)NC(C)=O)CSCC[C@@H](C(=O)N[C@H](C(=O)N[C@@H](CCC(=O)O)C(=O)NCC(=O)N[C@@H](CCC(=O)O)C(=O)NCCOCCOCC(=O)NCCOCCOCC(=O)N[C@@H](CCCCNC(=O)CC[C@H](NC(=O)CNC(=O)CC[C@H](NC(=O)CCCCCCCCCCCCCCCCC(=O)O)C(=O)O)C(=O)O)C(N)=O)[C@@H](C)O)NC(=O)[C@H](CCCNC(=N)N)NC(=O)[C@H](Cc2c[nH]cn2)NC(=O)[C@H](CCC(=O)O)NC(=O)CNC(=O)[C@H](Cc2c[nH]c3ccccc23)NC(=O)[C@H](CC(=O)O)NC(=O)[C@H](CCC(N)=O)NC(=O)[C@H](Cc2cn(C)c3ccccc23)NC1=O
In turn, B5 yielded an IC50[nM], inhibition of hemolysis below 100 nM.

B6: Compound 145 (peptide)
peptide: Ac-EFCI[Trp(1-Me)]QDWGEHRC[Sar]EA[AEEA][AEEA]K([γGlu-Gly-γGlu-C18 diacid])-NH2
modifications: disulfide 3-13
SMILES: CC[C@H](C)[C@@H]1NC(=O)[C@@H](NC(=O)[C@H](Cc2ccccc2)NC(=O)[C@H](CCC(=O)O)NC(C)=O)CSSC[C@@H](C(=O)N(C)CC(=O)N[C@@H](CCC(=O)O)C(=O)N[C@@H](C)C(=O)NCCOCCOCC(=O)NCCOCCOCC(=O)N[C@@H](CCCCNC(=O)CC[C@H](NC(=O)CNC(=O)CC[C@H](NC(=O)CCCCCCCCCCCCCCCCC(=O)O)C(=O)O)C(=O)O)C(N)=O)NC(=O)[C@H](CCCNC(=N)N)NC(=O)[C@H](Cc2c[nH]cn2)NC(=O)[C@H](CCC(=O)O)NC(=O)CNC(=O)[C@H](Cc2c[nH]c3ccccc23)NC(=O)[C@H](CC(=O)O)NC(=O)[C@H](CCC(N)=O)NC(=O)[C@H](Cc2cn(C)c3ccccc23)NC1=O
B6 came in with an IC50[nM], inhibition of hemolysis below 100 nM.

Consider Ac-SEFAI[Trp(1-Me)]QDWGEHR[hCys]TEGE[AEEA]ESK([γGlu-C18 diacid])-OH (thioether 4-14) [Compound 163], for which the IC50[nM], inhibition of hemolysis is below 100 nM.

B7: Ac-IC(1)X…(1)T-NH2 with Phenylalanine at position 3 (peptide)
peptide: Ac-ICFWQDWGEHRCT-NH2
modifications: disulfide 2-12
SMILES: CC[C@H](C)[C@H](NC(C)=O)C(=O)N[C@H]1CSSC[C@@H](C(=O)N[C@H](C(N)=O)[C@@H](C)O)NC(=O)[C@H](CCCNC(=N)N)NC(=O)[C@H](Cc2c[nH]cn2)NC(=O)[C@H](CCC(=O)O)NC(=O)CNC(=O)[C@H](Cc2c[nH]c3ccccc23)NC(=O)[C@H](CC(=O)O)NC(=O)[C@H](CCC(N)=O)NC(=O)[C@H](Cc2c[nH]c3ccccc23)NC(=O)[C@H](Cc2ccccc2)NC1=O
The molecule B7 came in with an IC50, CP hemolysis above 10000 nM.

B8: Compound 11 (peptide)
peptide: Ac-[Sar]CIWQDWGEHRCT-NH2
modifications: disulfide 2-12
SMILES: CC[C@H](C)[C@@H]1NC(=O)[C@@H](NC(=O)CN(C)C(C)=O)CSSC[C@@H](C(=O)N[C@H](C(N)=O)[C@@H](C)O)NC(=O)[C@H](CCCNC(=N)N)NC(=O)[C@H](Cc2c[nH]cn2)NC(=O)[C@H](CCC(=O)O)NC(=O)CNC(=O)[C@H](Cc2c[nH]c3ccccc23)NC(=O)[C@H](CC(=O)O)NC(=O)[C@H](CCC(N)=O)NC(=O)[C@H](Cc2c[nH]c3ccccc23)NC1=O
Molecule B8 showed an IC50[nM], inhibition of hemolysis below 100 nM.

For the molecule Ac-SEFAI[Trp(1-Me)]QDWGEHR[hCys][Sar]EGE[AEEA][AEEA]K([γGlu-Gly-γGlu-C16 diacid])-NH2 (thioether 4-14) [Compound 160], the IC50[nM], inhibition of hemolysis is below 100 nM.

B9: Compound 40 (peptide)
peptide: Ac-GSAICIWQDWGEHRC[Sar]E-NH2
modifications: disulfide 5-15
SMILES: CC[C@H](C)[C@H](NC(=O)[C@H](C)NC(=O)[C@H](CO)NC(=O)CNC(C)=O)C(=O)N[C@H]1CSSC[C@@H](C(=O)N(C)CC(=O)N[C@@H](CCC(=O)O)C(N)=O)NC(=O)[C@H](CCCNC(=N)N)NC(=O)[C@H](Cc2c[nH]cn2)NC(=O)[C@H](CCC(=O)O)NC(=O)CNC(=O)[C@H](Cc2c[nH]c3ccccc23)NC(=O)[C@H](CC(=O)O)NC(=O)[C@H](CCC(N)=O)NC(=O)[C@H](Cc2c[nH]c3ccccc23)NC(=O)[C@H]([C@@H](C)CC)NC1=O
As to B9, the IC50[nM], inhibition of hemolysis was below 250 nM.

B10: Compound 159 (peptide)
peptide: EGSAYAIWQDWGEHRCGEKEK
modifications: not fully specified; N-acetyl; C-terminal amide; delta-cystathionine (Ctt2) thioether bridge A6-hCys16 (hCys written C); W8 is 1-Me-Trp; G17 is Sar; E20 is γGlu; K21 side chain bears [17-carboxy-heptadecanoyl][γGlu][Peg3][Peg3]
Molecule B10 displayed an IC50[nM], inhibition of hemolysis below 100 nM.

B11: Compound 158 (peptide)
peptide: Ac-EFAI[Trp(1-Me)]QEWGEHR[hCys][Sar]EA[AEEA][AEEA]K([γGlu-Gly-γGlu-C18 diacid])-NH2
modifications: thioether 3-13
SMILES: CC[C@H](C)[C@@H]1NC(=O)[C@@H](NC(=O)[C@H](Cc2ccccc2)NC(=O)[C@H](CCC(=O)O)NC(C)=O)CSCC[C@@H](C(=O)N(C)CC(=O)N[C@@H](CCC(=O)O)C(=O)N[C@@H](C)C(=O)NCCOCCOCC(=O)NCCOCCOCC(=O)N[C@@H](CCCCNC(=O)CC[C@H](NC(=O)CNC(=O)CC[C@H](NC(=O)CCCCCCCCCCCCCCCCC(=O)O)C(=O)O)C(=O)O)C(N)=O)NC(=O)[C@H](CCCNC(=N)N)NC(=O)[C@H](Cc2c[nH]cn2)NC(=O)[C@H](CCC(=O)O)NC(=O)CNC(=O)[C@H](Cc2c[nH]c3ccccc23)NC(=O)[C@H](CCC(=O)O)NC(=O)[C@H](CCC(N)=O)NC(=O)[C@H](Cc2cn(C)c3ccccc23)NC1=O
Turning to B11, the IC50[nM], inhibition of hemolysis is below 250 nM.

B12: Compound 155 (peptide)
peptide: Ac-GEFAI[Trp(1-Me)]QEWGEHR[hCys][Sar]EGE[AEEA]ESK([γGlu-Gly-γGlu-C18 diacid])-NH2
modifications: thioether 4-14
SMILES: CC[C@H](C)[C@@H]1NC(=O)[C@@H](NC(=O)[C@H](Cc2ccccc2)NC(=O)[C@H](CCC(=O)O)NC(=O)CNC(C)=O)CSCC[C@@H](C(=O)N(C)CC(=O)N[C@@H](CCC(=O)O)C(=O)NCC(=O)N[C@@H](CCC(=O)O)C(=O)NCCOCCOCC(=O)N[C@@H](CCC(=O)O)C(=O)N[C@@H](CO)C(=O)N[C@@H](CCCCNC(=O)CC[C@H](NC(=O)CNC(=O)CC[C@H](NC(=O)CCCCCCCCCCCCCCCCC(=O)O)C(=O)O)C(=O)O)C(N)=O)NC(=O)[C@H](CCCNC(=N)N)NC(=O)[C@H](Cc2c[nH]cn2)NC(=O)[C@H](CCC(=O)O)NC(=O)CNC(=O)[C@H](Cc2c[nH]c3ccccc23)NC(=O)[C@H](CCC(=O)O)NC(=O)[C@H](CCC(N)=O)NC(=O)[C@H](Cc2cn(C)c3ccccc23)NC1=O
In turn, B12 yielded an IC50[nM], inhibition of hemolysis below 100 nM.

For the origin of these results see patent US20220306695A1, “COMPSTATIN ANALOGUES AND THEIR MEDICAL USES” (priority 2019, published 2022).
